Data as given in patent US20230279087A1 (INFLARX, published 2023).

T1: recombinant human C5a (human, UniProt P01031 678-751)
T1 sequence: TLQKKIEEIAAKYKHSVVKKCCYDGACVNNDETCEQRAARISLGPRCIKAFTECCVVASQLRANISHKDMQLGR


Legend:
recombinant human C5a [1] = target: T1, recombinant human C5a; experiment: cell-based or functional assay
recombinant human C5a [2] = target: T1, recombinant human C5a; experiment: ELISA on C5a (ABZENA), 0-100 ng/mL antibody

Row | Binder | relative blocking activity on rhC5a-induced CD11b upregulation on granulocytes in human whole blood (flow cytometry MFI), 16.7 nM rhC5a, Ag:Ab 1:1, IFX-1 set to 100% [lower graph] (recombinant human C5a [1]) | Relative EC50 (recombinant human C5a [2]) | relative blocking activity on rhC5a-induced CD11b upregulation on granulocytes in human whole blood (flow cytometry MFI), 16.7 nM rhC5a, Ag:Ab 1:1, IFX-1 set to 100% [upper graph] (recombinant human C5a [1])
1 | VH4Vk3 (IFX-2 clone) (antibody, IgG4, Humanized IgG4 (S241P) / kappa; also called VH4/Vκ3; not shown: human kappa light chain constant domain) heavy: not shown light: DIQLTQSPSSLSASVGDRVTITCKASQSVDYDGDSYMKWYQQKPGKAPKLLIYAASNLQSGIPSRFSGSGSGTDFTLTISSLQPEDFATYYCQQSNEDPYTFGQGTKLEIK | 102% | 0.91 relative to IFX-1 (VH0Vk0) | 
2 | VH2Vk3 (IFX-2 clone) (antibody, IgG4, V domains shown, Humanized IgG4 (S241P) / kappa; also called VH2/Vκ3; not shown: human kappa light chain constant domain) VH: QVQLVQSGAEVKKPGASVKISCKASGYSFTTFWMDWVKQAPGQGLEWIGRIDPSDSESRLDQRFKDRATLTVDKSTSTVYMELSSLRSEDTAVYYCARGNDGYYGFAYWGQGTLVTVSS VL: DIQLTQSPSSLSASVGDRVTITCKASQSVDYDGDSYMKWYQQKPGKAPKLLIYAASNLQSGIPSRFSGSGSGTDFTLTISSLQPEDFATYYCQQSNEDPYTFGQGTKLEIK |  | 1.09 relative to IFX-1 (VH0Vk0) | 
3 | VH2Vk4 (IFX-2 clone) (antibody, IgG4, V domains shown, Humanized IgG4 (S241P) / kappa; also called VH2/Vκ4; not shown: human kappa light chain constant domain) VH: QVQLVQSGAEVKKPGASVKISCKASGYSFTTFWMDWVKQAPGQGLEWIGRIDPSDSESRLDQRFKDRATLTVDKSTSTVYMELSSLRSEDTAVYYCARGNDGYYGFAYWGQGTLVTVSS VL: DIQMTQSPSSLSASVGDRVTITCKASQSVDYDGDSYMKWYQQKPGKAPKLLIYAASNLQSGVPSRFSGSGSGTDFTLTISSLQPEDFATYYCQQSNEDPYTFGQGTKLEIK |  | 0.99 relative to IFX-1 (VH0Vk0) | 
4 | VH3Vk2 (IFX-2 clone) (antibody, IgG4, V domains shown, Humanized IgG4 (S241P) / kappa; also called VH3/Vκ2; not shown: human kappa light chain constant domain) VH: QVQLVQSGAEVKKPGASVKVSCKASGYSFTTFWMDWVRQAPGQGLEWIGRIDPSDSESRLDQRFKDRATLTVDKSTSTVYMELSSLRSEDTAVYYCARGNDGYYGFAYWGQGTLVTVSS VL: DIVLTQSPASLSASVGDRVTITCKASQSVDYDGDSYMKWYQQKPGKAPKLLIYAASNLQSGIPSRFSGSGSGTDFTLTISSLQPEDFATYYCQQSNEDPYTFGQGTKLEIK |  | 1.05 relative to IFX-1 (VH0Vk0) | 96%
5 | VH3Vk4 (IFX-2 clone) (antibody, IgG4, V domains shown, Humanized IgG4 (S241P) / kappa; also called VH3/Vκ4; not shown: human kappa light chain constant domain) VH: QVQLVQSGAEVKKPGASVKVSCKASGYSFTTFWMDWVRQAPGQGLEWIGRIDPSDSESRLDQRFKDRATLTVDKSTSTVYMELSSLRSEDTAVYYCARGNDGYYGFAYWGQGTLVTVSS VL: DIQMTQSPSSLSASVGDRVTITCKASQSVDYDGDSYMKWYQQKPGKAPKLLIYAASNLQSGVPSRFSGSGSGTDFTLTISSLQPEDFATYYCQQSNEDPYTFGQGTKLEIK | 103% | 0.86 relative to IFX-1 (VH0Vk0) | 
6 | VH4Vk1 (IFX-2 clone) (antibody, IgG4, V domains shown, Humanized IgG4 (S241P) / kappa; also called VH4/Vκ1; not shown: human kappa light chain constant domain) VH: QVQLVQSGAEVKKPGASVKVSCKASGYSFTTFWMDWVRQAPGQGLEWIGRIDPSDSESRLDQRFKDRVTMTVDKSTSTVYMELSSLRSEDTAVYYCARGNDGYYGFAYWGQGTLVTVSS VL: DIVLTQSPASLAASVGDRVTITCKASQSVDYDGDSYMKWYQQKPGKAPKLLIYAASNLQSGIPSRFSGSGSGTDFTLTISSLQEEDFATYYCQQSNEDPYTFGQGTKLEIK |  | 1 relative to IFX-1 (VH0Vk0) | 98%
7 | VH4Vk2 (IFX-2 clone) (antibody, IgG4, Humanized IgG4 (S241P) / kappa; also called VH4/Vκ2; not shown: human kappa light chain constant domain) heavy: not shown light: DIVLTQSPASLSASVGDRVTITCKASQSVDYDGDSYMKWYQQKPGKAPKLLIYAASNLQSGIPSRFSGSGSGTDFTLTISSLQPEDFATYYCQQSNEDPYTFGQGTKLEIK | 104% | 0.86 relative to IFX-1 (VH0Vk0) | 
8 | VH4Vk4 (IFX-2 clone) (antibody, IgG4, V domains shown, Humanized IgG4 (S241P) / kappa; also called VH4/Vκ4; not shown: human kappa light chain constant domain) VH: QVQLVQSGAEVKKPGASVKVSCKASGYSFTTFWMDWVRQAPGQGLEWIGRIDPSDSESRLDQRFKDRVTMTVDKSTSTVYMELSSLRSEDTAVYYCARGNDGYYGFAYWGQGTLVTVSS VL: DIQMTQSPSSLSASVGDRVTITCKASQSVDYDGDSYMKWYQQKPGKAPKLLIYAASNLQSGVPSRFSGSGSGTDFTLTISSLQPEDFATYYCQQSNEDPYTFGQGTKLEIK |  | 1.03 relative to IFX-1 (VH0Vk0) | 102%
9 | VH5Vk1 (IFX-2 clone) (antibody, IgG4, V domains shown, Humanized IgG4 (S241P) / kappa; also called VH5/Vκ1; not shown: human kappa light chain constant domain) VH: QVQLVQSGAEVKKPGASVKVSCKASGYSFTTFWMDWVRQAPGQGLEWMGRIDPSDSESRLDQKFKDRVTMTVDKSTSTVYMELSSLRSEDTAVYYCARGNDGYYGFAYWGQGTLVTVSS VL: DIVLTQSPASLAASVGDRVTITCKASQSVDYDGDSYMKWYQQKPGKAPKLLIYAASNLQSGIPSRFSGSGSGTDFTLTISSLQEEDFATYYCQQSNEDPYTFGQGTKLEIK | 101% | 1.28 relative to IFX-1 (VH0Vk0) | 
10 | VH5Vk2 (IFX-2 clone) (antibody, IgG4, Humanized IgG4 (S241P) / kappa; also called VH5/Vκ2; not shown: human kappa light chain constant domain) heavy: not shown light: DIVLTQSPASLSASVGDRVTITCKASQSVDYDGDSYMKWYQQKPGKAPKLLIYAASNLQSGIPSRFSGSGSGTDFTLTISSLQPEDFATYYCQQSNEDPYTFGQGTKLEIK | 103% | 1.05 relative to IFX-1 (VH0Vk0) | 
11 | VH5Vk3 (IFX-2 clone) (antibody, IgG4, Humanized IgG4 (S241P) / kappa; also called VH5/Vκ3; not shown: human kappa light chain constant domain) heavy: not shown light: DIQLTQSPSSLSASVGDRVTITCKASQSVDYDGDSYMKWYQQKPGKAPKLLIYAASNLQSGIPSRFSGSGSGTDFTLTISSLQPEDFATYYCQQSNEDPYTFGQGTKLEIK |  | 1.14 relative to IFX-1 (VH0Vk0) | 96%
12 | VH5Vk4 (IFX-2 clone) (antibody, IgG4, V domains shown, Humanized IgG4 (S241P) / kappa; also called VH5/Vκ4; not shown: human kappa light chain constant domain) VH: QVQLVQSGAEVKKPGASVKVSCKASGYSFTTFWMDWVRQAPGQGLEWMGRIDPSDSESRLDQKFKDRVTMTVDKSTSTVYMELSSLRSEDTAVYYCARGNDGYYGFAYWGQGTLVTVSS VL: DIQMTQSPSSLSASVGDRVTITCKASQSVDYDGDSYMKWYQQKPGKAPKLLIYAASNLQSGVPSRFSGSGSGTDFTLTISSLQPEDFATYYCQQSNEDPYTFGQGTKLEIK |  | 1.53 relative to IFX-1 (VH0Vk0) | 94%
13 | IFX-1 (VH0/Vκ0), chimeric anti-human C5a IgG4 antibody (antibody, V domains shown, also called VH0Vk0; VH0Vk0 (IFX-1); not shown: human kappa light chain constant domain) VH: QVQLQQSGPQLVRPGTSVKISCKASGYSFTTFWMDWVKQRPGQGLEWIGRIDPSDSESRLDQRFKDRATLTVDKSSSTVYMQLSSPTSEDSAVYYCARGNDGYYGFAYWGQGTLVTVSS VL: DIVLTQSPASLAVSLGQRATISCKASQSVDYDGDSYMKWYQQKPGQPPKLLIYAASNLQSGIPARFSGSGSGTDFTLNIHPVEEEDAATYYCQQSNEDPYTFGGGTKLEIK |  | 1 relative to IFX-1 (VH0Vk0) | 
